These results are taken from patent US20220041721A1 (WUHAN YZY BIOPHARMA, published 2022).

For one test, the target named is T1, human CD3 (human, UniProt P07766 23-207).
T1 construct: whole, on cells; Assays used CD3 positive T cells (or CIK cells) from human blood; also called Human CD3ϵ; CD3 on human CD3 positive T cells
Description: flow cytometry on human CD3 positive T cells.

In another test the target is T2, monkey CD3 (monkey).
T2 construct: whole, on cells; also called CD3 on monkey CD3 positive T cells
Description: flow cytometry on monkey CD3 positive T cells.

The next test addresses T3, Human CD38 (human, UniProt P28907 1-300).
T3 construct: whole, on cells; the assays used the protein on tumor cells
Nature of the test: flow cytometry on CD38 positive tumor cells (MM.1S or RPMI 8226).

B1: MS-hCD3-IC17 (bispecific antibody, human IgG1, kappa)
scFv: QVQLVESGGGVVQPGRSLRLSCAASGFTFSTYAMNWVRQAPGKGLEWVARIRSKYNNYATYYADSVKDRFTISRDDSKNTLYLQMNSLRAEDTAVYYCARHGNFGNSYVSWFAYWGQGTLVTVSSGGGGSGGGGSGGGGSQTVVTQEPSLTVSPGGTVTLTCRSSTGAVTTSNYANWVQQKPGQAPRGLIGGTNKRAPGVPARFSGSLLGGKAALTLSGVQPEDEAEYYCALWYSNLWVFGGGTKVEIKGGGGSDKTHTCPPSPAPPVAGPSVFLFPPKPKDTLMISRTPEVTCVVVDVSHEDPEVQFNWYVDGVEVHNAKTKPREEQFNSTFRVVSVLTVVHQDWLNGKEYKCKVSNKGLPAPIEKTISKTKGQPREPQVCTLPPSRDELTKNQVSLSCAVKGFYPSDIAVEWESNGQPENNYKTTPPVLDSDGSFFLVSKLTVDKSRWQQGNVFSCSVMHEALHNHYTQKSLSLSPGK
heavy: EVKLDETGGGLVQPGRPMKLSCVASGFTFSDYWMNWVRQSPEKGLEWVAQIRNKPYNYETYYSDSVKGRFTISRDDSKSSVYLQMNNLRVEDMGIYYCTGSYYGMDYWGQGTSVTVSSASTKGPSVFPLAPSSKSTSGGTAALGCLVKDYFPEPVTVSWNSGALTSGVHTFPAVLQSSGLYSLSSVVTVPSSSLGTQTYICNVNHKPSNTKVDKKVEPKSCDKTHTCPPSPAPPVAGPSVFLFPPKPKDTLMISRTPEVTCVVVDVSHEDPEVQFNWYVDGVEVHNAKTKPREEQFNSTFRVVSVLTVVHQDWLNGKEYKCKVSNKGLPAPIEKTISKTKGQPREPQVYTLPPCRDELTKNQVSLWCLVKGFYPSDIAVEWESNGQPENNYKTTPPVLDSDGSFFLYSKLTVDKSRWQQGNVFSCSVMHEALHNHYTQKSLSLSPGK
light: DVVMTQTPLSLPVSLGDQASISCRSSQSLVHSNGNTYLRWYLQKPGQSPKVLIYKVSNRFSGVPDRFSGSGSGTDFTLKISRVEAEDLGVYFCSQSTHVPWTFGGGTKLEIKRTVAAPSVFIFPPSDEQLKSGTASVVCLLNNFYPREAKVQWKVDNALQSGNSQESVTEQDSKDSTYSLSSTLTLSKADYEKHKVYACEVTHQGLSSPVTKSFNRGEC
notes: 4420 Fab arm and anti-CD3 scFv (VH2a/VL5)-Fc fusion peptide, CH2 SG2; also called MS-hCD3-17
Take B1: the EC50 with human CD3 amounted to 122 nM; with monkey CD3 it was 222 nM.

B2: IC-2 (bispecific antibody, human IgG1, kappa)
scFv: EVQLVESGGGLVQPKGSLKLSCAASGFTFNTYAMNWVRQAPGKGLEWVARIRSKYNNYATYYADSVKDRFTISRDDSQSILYLQMNNLKTEDTAMYYCVRHGNFGNSYVSWFAYWGQGTLVTVSSGGGGSGGGGSGGGGSQAVVTQESALTTSPGETVTLTCRSSTGAVTTSNYANWVQEKPDHLFTGLIGGTNKRAPGVPARFSGSLIGDKAALTITGAQTEDEAIYFCALWYSNLWVFGGGTKLTVLGDGDGSDKTHTCPPCPAPEFEGGPSVFLFPPKPKDTLMISRTPEVTCVVVDVSHEDPEVKFNWYVDGVEVHNAKTKPREEQYNSTYRVVSVLTVLHQDWLNGKEYKCKVSNKALPASIEKTISKAKGQPREPQVCTLPPSRDELTKNQVSLSCAVKGFYPSDIAVEWESNGQPENNYKTTPPVLDSDGSFFLVSKLTVDKSRWQQGNVFSCSVMHEALHNHYTQKSLSLSPGK
heavy: EVKLDETGGGLVQPGRPMKLSCVASGFTFSDYWMNWVRQSPEKGLEWVAQIRNKPYNYETYYSDSVKGRFTISRDDSKSSVYLQMNNLRVEDMGIYYCTGSYYGMDYWGQGTSVTVSSASTKGPSVFPLAPSSKSTSGGTAALGCLVKDYFPEPVTVSWNSGALTSGVHTFPAVLQSSGLYSLSSVVTVPSSSLGTQTYICNVNHKPSNTKVDKKVEPKSCDKTHTCPPCPAPEFEGGPSVFLFPPKPKDTLMISRTPEVTCVVVDVSHEDPEVKFNWYVDGVEVHNAKTKPREEQYNSTYRVVSVLTVLHQDWLNGKEYKCKVSNKALPASIEKTISKAKGQPREPQVYTLPPCRDELTKNQVSLWCLVKGFYPSDIAVEWESNGQPENNYKTTPPVLDSDGSFFLYSKLTVDKSRWQQGNVFSCSVMHEALHNHYTQKSLSLSPGK
light: DVVMTQTPLSLPVSLGDQASISCRSSQSLVHSNGNTYLRWYLQKPGQSPKVLIYKVSNRFSGVPDRFSGSGSGTDFTLKISRVEAEDLGVYFCSQSTHVPWTFGGGTKLEIKRTVAAPSVFIFPPSDEQLKSGTASVVCLLNNFYPREAKVQWKVDNALQSGNSQESVTEQDSKDSTYSLSSTLTLSKADYEKHKVYACEVTHQGLSSPVTKSFNRGEC
notes: Comparative: 4420 Fab arm and anti-CD3 scFv (SP34)-Fc fusion peptide, CH2 FES
Turning to B2, the EC50 with human CD3 stood at 172 nM; with monkey CD3, 312 nM.

B3: MS-hCD3-IC18 (bispecific antibody, human IgG1, kappa)
scFv: QVQLVESGGGVVQPGRSLRLSCAASGFTFSTYAMNWVRQAPGKGLEWVARIRSKYNNYATYYADSVKDRFTISRDDSKNTLYLQMNSLRAEDTAVYYCARHGNFGNSYVSWAAYWGQGTLVTVSSGGGGSGGGGSGGGGSQTVVTQEPSLTVSPGGTVTLTCRSSTGAVTTSNYANWFQQKPGQAPRGLIGGTNKRAPGVPARFSGSLLGGKAALTLSGVQPEDEAEYYCALWYSNLWVFGGGTKVEIKGGGGSDKTHTCPPSPAPPVAGPSVFLFPPKPKDTLMISRTPEVTCVVVDVSHEDPEVQFNWYVDGVEVHNAKTKPREEQFNSTFRVVSVLTVVHQDWLNGKEYKCKVSNKGLPAPIEKTISKTKGQPREPQVCTLPPSRDELTKNQVSLSCAVKGFYPSDIAVEWESNGQPENNYKTTPPVLDSDGSFFLVSKLTVDKSRWQQGNVFSCSVMHEALHNHYTQKSLSLSPGK
heavy: EVKLDETGGGLVQPGRPMKLSCVASGFTFSDYWMNWVRQSPEKGLEWVAQIRNKPYNYETYYSDSVKGRFTISRDDSKSSVYLQMNNLRVEDMGIYYCTGSYYGMDYWGQGTSVTVSSASTKGPSVFPLAPSSKSTSGGTAALGCLVKDYFPEPVTVSWNSGALTSGVHTFPAVLQSSGLYSLSSVVTVPSSSLGTQTYICNVNHKPSNTKVDKKVEPKSCDKTHTCPPSPAPPVAGPSVFLFPPKPKDTLMISRTPEVTCVVVDVSHEDPEVQFNWYVDGVEVHNAKTKPREEQFNSTFRVVSVLTVVHQDWLNGKEYKCKVSNKGLPAPIEKTISKTKGQPREPQVYTLPPCRDELTKNQVSLWCLVKGFYPSDIAVEWESNGQPENNYKTTPPVLDSDGSFFLYSKLTVDKSRWQQGNVFSCSVMHEALHNHYTQKSLSLSPGK
light: DVVMTQTPLSLPVSLGDQASISCRSSQSLVHSNGNTYLRWYLQKPGQSPKVLIYKVSNRFSGVPDRFSGSGSGTDFTLKISRVEAEDLGVYFCSQSTHVPWTFGGGTKLEIKRTVAAPSVFIFPPSDEQLKSGTASVVCLLNNFYPREAKVQWKVDNALQSGNSQESVTEQDSKDSTYSLSSTLTLSKADYEKHKVYACEVTHQGLSSPVTKSFNRGEC
notes: 4420 Fab arm and anti-CD3 scFv (VH2j/VL5a)-Fc fusion peptide, CH2 SG2
On to B3, for which the results for the EC50 with human CD3 and in the test with monkey CD3 were 582 nM and 680 nM, respectively.

B4: IC-3 (bispecific antibody, human IgG1, kappa, N297Q)
scFv: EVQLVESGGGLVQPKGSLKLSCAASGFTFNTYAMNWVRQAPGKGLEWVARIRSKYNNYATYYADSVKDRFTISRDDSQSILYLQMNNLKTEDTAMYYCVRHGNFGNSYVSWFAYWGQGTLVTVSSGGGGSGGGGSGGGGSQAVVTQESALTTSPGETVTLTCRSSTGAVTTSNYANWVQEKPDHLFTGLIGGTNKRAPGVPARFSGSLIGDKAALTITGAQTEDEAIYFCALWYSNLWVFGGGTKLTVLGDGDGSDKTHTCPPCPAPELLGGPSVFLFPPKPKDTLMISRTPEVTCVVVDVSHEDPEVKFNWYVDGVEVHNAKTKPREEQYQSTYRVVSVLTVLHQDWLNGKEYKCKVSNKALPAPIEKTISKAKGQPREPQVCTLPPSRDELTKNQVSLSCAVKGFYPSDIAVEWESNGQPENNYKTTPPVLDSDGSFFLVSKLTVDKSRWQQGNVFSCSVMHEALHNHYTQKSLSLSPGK
heavy: EVKLDETGGGLVQPGRPMKLSCVASGFTFSDYWMNWVRQSPEKGLEWVAQIRNKPYNYETYYSDSVKGRFTISRDDSKSSVYLQMNNLRVEDMGIYYCTGSYYGMDYWGQGTSVTVSSASTKGPSVFPLAPSSKSTSGGTAALGCLVKDYFPEPVTVSWNSGALTSGVHTFPAVLQSSGLYSLSSVVTVPSSSLGTQTYICNVNHKPSNTKVDKKVEPKSCDKTHTCPPCPAPELLGGPSVFLFPPKPKDTLMISRTPEVTCVVVDVSHEDPEVKFNWYVDGVEVHNAKTKPREEQYQSTYRVVSVLTVLHQDWLNGKEYKCKVSNKALPAPIEKTISKAKGQPREPQVYTLPPCRDELTKNQVSLWCLVKGFYPSDIAVEWESNGQPENNYKTTPPVLDSDGSFFLYSKLTVDKSRWQQGNVFSCSVMHEALHNHYTQKSLSLSPGK
light: DVVMTQTPLSLPVSLGDQASISCRSSQSLVHSNGNTYLRWYLQKPGQSPKVLIYKVSNRFSGVPDRFSGSGSGTDFTLKISRVEAEDLGVYFCSQSTHVPWTFGGGTKLEIKRTVAAPSVFIFPPSDEQLKSGTASVVCLLNNFYPREAKVQWKVDNALQSGNSQESVTEQDSKDSTYSLSSTLTLSKADYEKHKVYACEVTHQGLSSPVTKSFNRGEC
notes: Comparative: 4420 Fab arm and anti-CD3 scFv (SP34)-Fc fusion peptide, CH2 N297Q
For the molecule B4, the EC50 in the test with human CD3 was found to be 155 nM; with monkey CD3 it was 285 nM.

B5: Y150-F9-7 (bispecific antibody, human IgG1, lambda)
scFv: QVQLVESGGGVVQPGRSLRLSCAASGFTFSTYAMNWVRQAPGKGLEWVARIRSKYNNYATYYADSVKDRFTISRDDSKNTLYLQMNSLRAEDTAVYYCARHGNFGNSYVSWFAYWGQGTLVTVSSGGGGSGGGGSGGGGSQTVVTQEPSLTVSPGGTVTLTCRSSTGAVTTSNYANWVQQKPGQAPRGLIGGTNKRAPGVPARFSGSLLGGKAALTLSGVQPEDEAEYYCALWYSNLWVFGGGTKVEIKGGGGSDKTHTCPPCPAPEFEGGPSVFLFPPKPKDTLMISRTPEVTCVVVDVSHEDPEVKFNWYVDGVEVHNAKTKPREEQYNSTYRVVSVLTVLHQDWLNGKEYKCKVSNKALPASIEKTISKAKGQPREPQVCTLPPSRDELTKNQVSLSCAVKGFYPSDIAVEWESNGQPENNYKTTPPVLDSDGSFFLVSKLTVDKSRWQQGNVFSCSVMHEALHNHYTQKSLSLSPGK
heavy: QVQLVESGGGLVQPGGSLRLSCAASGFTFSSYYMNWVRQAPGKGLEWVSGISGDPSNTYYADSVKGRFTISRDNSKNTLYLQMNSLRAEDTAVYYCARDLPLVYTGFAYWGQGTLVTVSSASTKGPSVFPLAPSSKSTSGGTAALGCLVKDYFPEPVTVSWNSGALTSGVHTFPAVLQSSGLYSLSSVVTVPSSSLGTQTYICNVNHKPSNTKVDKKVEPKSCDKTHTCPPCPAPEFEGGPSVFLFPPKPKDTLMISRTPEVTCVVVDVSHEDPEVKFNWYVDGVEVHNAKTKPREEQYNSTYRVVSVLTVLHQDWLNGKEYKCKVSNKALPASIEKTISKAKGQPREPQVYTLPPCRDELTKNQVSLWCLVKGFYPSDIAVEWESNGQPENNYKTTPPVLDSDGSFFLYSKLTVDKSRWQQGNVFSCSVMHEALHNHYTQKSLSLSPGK
light: DIELTQPPSVSVAPGQTARISCSGDNLRHYYVYWYQQKPGQAPVLVIYGDSKRPSGIPERFSGSNSGNTATLTISGTQAEDEADYYCQTYTGGASLVFGGGTKLTVLGQPKAAPSVTLFPPSSEELQANKATLVCLISDFYPGAVTVAWKADSSPVKAGVETTTPSKQSNNKYAASSYLSLTPEQWKSHRSYSCQVTHEGSTVEKTVAPTECS
Consider B5, for which the EC50 with human CD3 was 426 nM; with monkey CD3, 422 nM; with Human CD38, 103 nM.

B6: Y150-F9-6 (bispecific antibody, human IgG1, lambda)
scFv: EVQLVESGGGLVQPKGSLKLSCAASGFTFNTYAMNWVRQAPGKGLEWVARIRSKYNNYATYYADSVKDRFTISRDDSQSILYLQMNNLKTEDTAMYYCVRHGNFGNSYVSWFAYWGQGTLVTVSSGGGGSGGGGSGGGGSQAVVTQESALTTSPGETVTLTCRSSTGAVTTSNYANWVQEKPDHLFTGLIGGTNKRAPGVPARFSGSLIGDKAALTITGAQTEDEAIYFCALWYSNLWVFGGGTKLTVLGDGDGSDKTHTCPPCPAPEFEGGPSVFLFPPKPKDTLMISRTPEVTCVVVDVSHEDPEVKFNWYVDGVEVHNAKTKPREEQYNSTYRVVSVLTVLHQDWLNGKEYKCKVSNKALPASIEKTISKAKGQPREPQVCTLPPSRDELTKNQVSLSCAVKGFYPSDIAVEWESNGQPENNYKTTPPVLDSDGSFFLVSKLTVDKSRWQQGNVFSCSVMHEALHNHYTQKSLSLSPGK
heavy: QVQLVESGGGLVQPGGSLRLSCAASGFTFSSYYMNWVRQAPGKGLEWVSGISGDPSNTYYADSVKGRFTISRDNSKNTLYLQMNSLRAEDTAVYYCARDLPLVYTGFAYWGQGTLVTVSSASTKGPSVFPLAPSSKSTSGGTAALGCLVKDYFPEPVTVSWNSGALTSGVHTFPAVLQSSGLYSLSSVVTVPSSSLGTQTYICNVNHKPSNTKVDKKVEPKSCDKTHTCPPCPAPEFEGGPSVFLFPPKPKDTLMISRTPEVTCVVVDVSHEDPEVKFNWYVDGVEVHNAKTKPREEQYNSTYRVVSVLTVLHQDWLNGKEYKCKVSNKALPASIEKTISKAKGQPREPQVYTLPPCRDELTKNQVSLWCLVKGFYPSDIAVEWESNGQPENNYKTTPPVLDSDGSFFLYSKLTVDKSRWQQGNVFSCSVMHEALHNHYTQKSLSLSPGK
light: DIELTQPPSVSVAPGQTARISCSGDNLRHYYVYWYQQKPGQAPVLVIYGDSKRPSGIPERFSGSNSGNTATLTISGTQAEDEADYYCQTYTGGASLVFGGGTKLTVLGQPKAAPSVTLFPPSSEELQANKATLVCLISDFYPGAVTVAWKADSSPVKAGVETTTPSKQSNNKYAASSYLSLTPEQWKSHRSYSCQVTHEGSTVEKTVAPTECS
notes: Comparative: anti-CD38 (MOR) Fab arm and anti-CD3 scFv (SP34)-Fc fusion peptide; 150 is used
On to B6, for which the concentration giving a half-maximal response (EC50) with human CD3 is 111 nM; with monkey CD3, 130 nM; with Human CD38 it was 27.1 nM.
